Assay results taken from article PMC10995199, “Architecture and regulation of filamentous human cystathionine beta-synthase” (Nature Communications, 2024).

T1: full-length human cystathionine beta-synthase, N-terminal His-tag removed during purification (CBS^FL) (human), P35520
T1 chain: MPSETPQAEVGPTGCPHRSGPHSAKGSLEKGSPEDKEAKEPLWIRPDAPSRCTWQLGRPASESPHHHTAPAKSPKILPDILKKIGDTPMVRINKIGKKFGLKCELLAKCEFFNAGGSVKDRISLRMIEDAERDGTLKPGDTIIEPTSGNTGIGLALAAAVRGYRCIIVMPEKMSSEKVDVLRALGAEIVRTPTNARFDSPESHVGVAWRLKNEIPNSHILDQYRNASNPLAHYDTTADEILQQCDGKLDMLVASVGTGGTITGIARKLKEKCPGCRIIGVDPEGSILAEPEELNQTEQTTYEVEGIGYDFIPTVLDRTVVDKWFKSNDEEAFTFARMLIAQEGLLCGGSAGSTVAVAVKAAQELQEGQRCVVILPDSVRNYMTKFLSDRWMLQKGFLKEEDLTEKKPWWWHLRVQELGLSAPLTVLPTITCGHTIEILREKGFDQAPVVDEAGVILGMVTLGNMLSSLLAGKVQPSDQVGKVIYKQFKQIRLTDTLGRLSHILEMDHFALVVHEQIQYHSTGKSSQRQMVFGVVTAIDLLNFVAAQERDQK

T2: full-length human cystathionine beta-synthase with a permanent C-terminal His-tag (CBS^FL-CHis) (human), P35520
T2 chain: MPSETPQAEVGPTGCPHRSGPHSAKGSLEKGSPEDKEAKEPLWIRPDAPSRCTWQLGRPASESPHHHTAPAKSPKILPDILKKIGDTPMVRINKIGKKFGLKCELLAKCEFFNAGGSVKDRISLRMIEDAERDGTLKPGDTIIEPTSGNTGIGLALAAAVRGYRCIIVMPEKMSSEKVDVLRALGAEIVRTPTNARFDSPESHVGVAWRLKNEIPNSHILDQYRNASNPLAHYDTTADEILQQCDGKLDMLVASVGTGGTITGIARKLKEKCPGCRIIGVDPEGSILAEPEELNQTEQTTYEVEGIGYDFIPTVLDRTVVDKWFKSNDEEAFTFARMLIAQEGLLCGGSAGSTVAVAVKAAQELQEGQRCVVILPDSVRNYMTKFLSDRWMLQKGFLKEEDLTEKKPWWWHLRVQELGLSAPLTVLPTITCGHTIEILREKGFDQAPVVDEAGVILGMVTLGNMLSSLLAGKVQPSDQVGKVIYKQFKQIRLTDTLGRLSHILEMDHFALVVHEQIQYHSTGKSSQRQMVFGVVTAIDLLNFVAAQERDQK

B1: full-length human cystathionine beta-synthase, N-terminal His-tag removed during purification (CBS^FL), P35520 1-551 (enzyme)
chain: MPSETPQAEVGPTGCPHRSGPHSAKGSLEKGSPEDKEAKEPLWIRPDAPSRCTWQLGRPASESPHHHTAPAKSPKILPDILKKIGDTPMVRINKIGKKFGLKCELLAKCEFFNAGGSVKDRISLRMIEDAERDGTLKPGDTIIEPTSGNTGIGLALAAAVRGYRCIIVMPEKMSSEKVDVLRALGAEIVRTPTNARFDSPESHVGVAWRLKNEIPNSHILDQYRNASNPLAHYDTTADEILQQCDGKLDMLVASVGTGGTITGIARKLKEKCPGCRIIGVDPEGSILAEPEELNQTEQTTYEVEGIGYDFIPTVLDRTVVDKWFKSNDEEAFTFARMLIAQEGLLCGGSAGSTVAVAVKAAQELQEGQRCVVILPDSVRNYMTKFLSDRWMLQKGFLKEEDLTEKKPWWWHLRVQELGLSAPLTVLPTITCGHTIEILREKGFDQAPVVDEAGVILGMVTLGNMLSSLLAGKVQPSDQVGKVIYKQFKQIRLTDTLGRLSHILEMDHFALVVHEQIQYHSTGKSSQRQMVFGVVTAIDLLNFVAAQERDQK
B2: full-length human cystathionine beta-synthase with a permanent C-terminal His-tag (CBS^FL-CHis), P35520 1-551 (enzyme)
chain: MPSETPQAEVGPTGCPHRSGPHSAKGSLEKGSPEDKEAKEPLWIRPDAPSRCTWQLGRPASESPHHHTAPAKSPKILPDILKKIGDTPMVRINKIGKKFGLKCELLAKCEFFNAGGSVKDRISLRMIEDAERDGTLKPGDTIIEPTSGNTGIGLALAAAVRGYRCIIVMPEKMSSEKVDVLRALGAEIVRTPTNARFDSPESHVGVAWRLKNEIPNSHILDQYRNASNPLAHYDTTADEILQQCDGKLDMLVASVGTGGTITGIARKLKEKCPGCRIIGVDPEGSILAEPEELNQTEQTTYEVEGIGYDFIPTVLDRTVVDKWFKSNDEEAFTFARMLIAQEGLLCGGSAGSTVAVAVKAAQELQEGQRCVVILPDSVRNYMTKFLSDRWMLQKGFLKEEDLTEKKPWWWHLRVQELGLSAPLTVLPTITCGHTIEILREKGFDQAPVVDEAGVILGMVTLGNMLSSLLAGKVQPSDQVGKVIYKQFKQIRLTDTLGRLSHILEMDHFALVVHEQIQYHSTGKSSQRQMVFGVVTAIDLLNFVAAQERDQK

Assays:
Conditions in all cases: remark: other sources report otherwise
[1] = target: T1, full-length human cystathionine …; test: SEC; analytical Superose 6 Increase 10/300 GL; 25 mM HEPES pH 7.5, 500 mM NaCl, 0.5 mM TCEP, 5% glycerol; 250 µl loaded at 3.0 mg/ml; self-association
[2] = target: T1, full-length human cystathionine …; test: native gel or EMSA; Coomassie-stained clear-native and blue-native PAGE; 25 mM HEPES pH 7.5, 200 mM NaCl, 2.0 mM TCEP; 1.0 mg/ml, 8.0 µg protein; without or with 1 mM SAM (no apparent effect on the oligomeric status); self-association
[3] = target: T2, full-length human cystathionine …; test: SEC; analytical Superose 6 Increase 10/300 GL; 25 mM HEPES pH 7.5, 500 mM NaCl, 0.5 mM TCEP, 5% glycerol; 250 µl loaded at 3.0 mg/ml; self-association

| Binder | stoichiometry N [1] | stoichiometry N [2] | stoichiometry N [3] |
| --- | --- | --- | --- |
| B1 | > 4 | > 4 |  |
| B2 |  |  | > 4 |
